Experimental data published in the supplement of paper PMC7877785.
± gives the uncertainty stated by the source.

Test: self-splicing fitness, log relative to wild type (ln ratio); higher = more splicing; Tetrahymena group I intron in knt gene, E. coli kanamycin selection, DiMSum; sequences stand for … in CUCUCU…GGAGGGAAAAGUUAUCAGGCAUGCACCUGGUAGCUAGUCUUUAAACCAAUAGAUUGCAUCGGUUUAAAAGGCAAGACCGUCAAAUUGCGGGAAAGGGGUCAACAGCCGUUCAGUACCAAGUCUCAGGGGAAACUUUGAGAUGGCCUUGCAAAGGGUAUGGUAAUAAGCUGACGGACAUGGUCCUAACCACGCAGCCAAGUCCUAAGUCAACAGAUCUUCUGUUGAUAUGGAUGCAGUUCACAGACUAAAUGUCGGUCGGGGAAGAUGUAUUCUUCUCAUAAGAUAUAGUCGGACCUCUCCUUAAUGGGAGCUAGCGGAUGAAGUGAUGCAACACUGGAGCCGCUGGGAACUAAUUUGUAUGCGAAAGUAUAUUGAUUAGUUUUGGAGUACUCGUGGUCG
In short: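 Fitness was computed with DiMSum as the error-weighted combination of replicate fold changes, kanamycin versus none, each normalised to wild type. The library randomised all eight intron nucleotides of the P1ex region, with the intron placed in the knt kanamycin-resistance gene on pET-22b(+) in E. coli BL21(DE3). Six replicate transformations were grown overnight at 37°C or 30°C on LB agar with or without 25 μg/mL kanamycin, plus 100 μg/mL carbenicillin, 50 μM IPTG and 0.2% rhamnose. Pooled colonies were amplicon-sequenced on an Illumina HiSeq 2500.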

UGAUAGCAAUAUUACGCCUG
self-splicing fitness (ln) (30 °C): 0.213 ± 0.14 | self-splicing fitness (ln) (37 °C): 0.502 ± 0.2

GGGAAGCAAUAUUACGAUGC
self-splicing fitness (ln) (30 °C): 0.369 ± 0.12 | self-splicing fitness (ln) (37 °C): 0.306 ± 0.13

GUACAGCAAUAUUACGGUAA
self-splicing fitness (ln) (30 °C): -0.865 ± 0.13 | self-splicing fitness (ln) (37 °C): -0.97 ± 0.12

GCCAAGCAAUAUUACGAGUU
self-splicing fitness (ln) (30 °C): -1.7 ± 0.066 | self-splicing fitness (ln) (37 °C): -0.45 ± 0.08

AGCUAGCAAUAUUACGGUCA
self-splicing fitness (ln) (30 °C): -0.312 ± 0.067 | self-splicing fitness (ln) (37 °C): 0.192 ± 0.083

UUAAAGCAAUAUUACGCGAG
self-splicing fitness (ln) (30 °C): -0.116 ± 0.071 | self-splicing fitness (ln) (37 °C): 0.3 ± 0.085

AGCUAGCAAUAUUACGAACU
self-splicing fitness (ln) (30 °C): -0.899 ± 0.12 | self-splicing fitness (ln) (37 °C): 0.179 ± 0.16

ACGAAGCAAUAUUACGGGCC
self-splicing fitness (ln) (30 °C): -2.74 ± 0.15 | self-splicing fitness (ln) (37 °C): -1.7 ± 0.14

ACCGAGCAAUAUUACGUACA
self-splicing fitness (ln) (30 °C): -2.64 ± 0.27 | self-splicing fitness (ln) (37 °C): -2.04 ± 0.27

GCCCAGCAAUAUUACGCAUA
self-splicing fitness (ln) (30 °C): -1.61 ± 0.093 | self-splicing fitness (ln) (37 °C): -0.164 ± 0.088

UAGGAGCAAUAUUACGGUCA
self-splicing fitness (ln) (30 °C): -2.65 ± 0.47 | self-splicing fitness (ln) (37 °C): -2.19 ± 0.26

GCAAAGCAAUAUUACGAUCG
self-splicing fitness (ln) (30 °C): -1.52 ± 0.067 | self-splicing fitness (ln) (37 °C): -0.0765 ± 0.091

UCGUAGCAAUAUUACGUGCG
self-splicing fitness (ln) (30 °C): -2.44 ± 0.14 | self-splicing fitness (ln) (37 °C): -0.347 ± 0.14

ACUGAGCAAUAUUACGAGAA
self-splicing fitness (ln) (30 °C): -2.33 ± 0.38 | self-splicing fitness (ln) (37 °C): -1.96 ± 0.32

CACAAGCAAUAUUACGCUAC
self-splicing fitness (ln) (30 °C): -3.18 ± 0.19 | self-splicing fitness (ln) (37 °C): -2.26 ± 0.18

AGUCAGCAAUAUUACGGUUA
self-splicing fitness (ln) (30 °C): -1.15 ± 0.087 | self-splicing fitness (ln) (37 °C): -0.533 ± 0.073

GUAAAGCAAUAUUACGCAUU
self-splicing fitness (ln) (30 °C): -1.76 ± 0.099 | self-splicing fitness (ln) (37 °C): -0.597 ± 0.11

UAGUAGCAAUAUUACGUAAG
self-splicing fitness (ln) (30 °C): -4.17 ± 0.46 | self-splicing fitness (ln) (37 °C): -1.11 ± 0.23

GGUUAGCAAUAUUACGCCAU
self-splicing fitness (ln) (30 °C): -1.39 ± 0.38

AAAAAGCAAUAUUACGAAGC
self-splicing fitness (ln) (37 °C): -1.85 ± 0.22

CUAUAGCAAUAUUACGGACU
self-splicing fitness (ln) (37 °C): -1.89 ± 0.31

CUUGAGCAAUAUUACGGUUC
self-splicing fitness (ln) (30 °C): -3.56 ± 0.35 | self-splicing fitness (ln) (37 °C): -2.51 ± 0.36

UCAUAGCAAUAUUACGGGGC
self-splicing fitness (ln) (37 °C): -3.14 ± 0.37

AGACAGCAAUAUUACGUGAA
self-splicing fitness (ln) (30 °C): -2.03 ± 0.14 | self-splicing fitness (ln) (37 °C): -0.982 ± 0.15

GGUGAGCAAUAUUACGGUUA
self-splicing fitness (ln) (30 °C): -2.58 ± 0.22 | self-splicing fitness (ln) (37 °C): -1.85 ± 0.17

GAUAAGCAAUAUUACGUUUG
self-splicing fitness (ln) (30 °C): -2.07 ± 0.17 | self-splicing fitness (ln) (37 °C): -1.92 ± 0.17

ACUCAGCAAUAUUACGUUGU
self-splicing fitness (ln) (30 °C): -3.45 ± 0.11 | self-splicing fitness (ln) (37 °C): -2.23 ± 0.13

CAGAAGCAAUAUUACGUGCC
self-splicing fitness (ln) (30 °C): -4.04 ± 0.28 | self-splicing fitness (ln) (37 °C): -2.74 ± 0.3

AAGUAGCAAUAUUACGAACU
self-splicing fitness (ln) (30 °C): -0.525 ± 0.1 | self-splicing fitness (ln) (37 °C): 0.139 ± 0.12

GCACAGCAAUAUUACGCUAC
self-splicing fitness (ln) (30 °C): -3.81 ± 0.37 | self-splicing fitness (ln) (37 °C): -2.29 ± 0.25

CGACAGCAAUAUUACGCACC
self-splicing fitness (ln) (30 °C): -0.97 ± 0.21 | self-splicing fitness (ln) (37 °C): -1.79 ± 0.21

GGCUAGCAAUAUUACGAGUA
self-splicing fitness (ln) (30 °C): -1.59 ± 0.13 | self-splicing fitness (ln) (37 °C): -0.404 ± 0.13

CCGUAGCAAUAUUACGUAUG
self-splicing fitness (ln) (30 °C): -0.772 ± 0.082 | self-splicing fitness (ln) (37 °C): 0.203 ± 0.12

CAAAAGCAAUAUUACGUCAU
self-splicing fitness (ln) (30 °C): -2.71 ± 0.17 | self-splicing fitness (ln) (37 °C): -2.48 ± 0.22

ACUCAGCAAUAUUACGGCGA
self-splicing fitness (ln) (30 °C): -1.41 ± 0.1 | self-splicing fitness (ln) (37 °C): -0.93 ± 0.12

UUACAGCAAUAUUACGAGGG
self-splicing fitness (ln) (30 °C): -3.1 ± 0.25 | self-splicing fitness (ln) (37 °C): -1.62 ± 0.21

ACCGAGCAAUAUUACGUAGU
self-splicing fitness (ln) (30 °C): -3.62 ± 0.18 | self-splicing fitness (ln) (37 °C): -2.26 ± 0.15

UAGCAGCAAUAUUACGUACU
self-splicing fitness (ln) (30 °C): -1.74 ± 0.1 | self-splicing fitness (ln) (37 °C): -0.434 ± 0.1

CCCAAGCAAUAUUACGUCCG
self-splicing fitness (ln) (30 °C): -3.6 ± 0.43 | self-splicing fitness (ln) (37 °C): -2.45 ± 0.3

CACCAGCAAUAUUACGAUUA
self-splicing fitness (ln) (30 °C): -2.82 ± 0.14 | self-splicing fitness (ln) (37 °C): -1.26 ± 0.11

AGAUAGCAAUAUUACGACAU
self-splicing fitness (ln) (30 °C): -0.0342 ± 0.013 | self-splicing fitness (ln) (37 °C): 0.0833 ± 0.033

CAGAAGCAAUAUUACGAUAC
self-splicing fitness (ln) (37 °C): -1.81 ± 0.2

AAUUAGCAAUAUUACGCGGG
self-splicing fitness (ln) (30 °C): -2.73 ± 0.15 | self-splicing fitness (ln) (37 °C): -0.941 ± 0.14

ACGGAGCAAUAUUACGGAGC
self-splicing fitness (ln) (30 °C): -1.67 ± 0.34

GCUCAGCAAUAUUACGUAAC
self-splicing fitness (ln) (30 °C): -1 ± 0.087 | self-splicing fitness (ln) (37 °C): -0.439 ± 0.11

GCUUAGCAAUAUUACGCGGC
self-splicing fitness (ln) (30 °C): -2.35 ± 0.29 | self-splicing fitness (ln) (37 °C): -2.19 ± 0.37

UCGGAGCAAUAUUACGCAAG
self-splicing fitness (ln) (37 °C): -2.23 ± 0.43

GAUGAGCAAUAUUACGGCAA
self-splicing fitness (ln) (30 °C): -0.812 ± 0.26 | self-splicing fitness (ln) (37 °C): -2.35 ± 0.37

UCGUAGCAAUAUUACGCCUU
self-splicing fitness (ln) (30 °C): -2.21 ± 0.13 | self-splicing fitness (ln) (37 °C): -0.619 ± 0.13

UCCUAGCAAUAUUACGCGGG
self-splicing fitness (ln) (30 °C): -3.2 ± 0.1 | self-splicing fitness (ln) (37 °C): -2.66 ± 0.14
